Assay in all cases: cell-based or functional assay
Test [1] concerns the target T1, human Klotho β (human, UniProt Q86Z14 1-1044).
T1 sequence (looked up): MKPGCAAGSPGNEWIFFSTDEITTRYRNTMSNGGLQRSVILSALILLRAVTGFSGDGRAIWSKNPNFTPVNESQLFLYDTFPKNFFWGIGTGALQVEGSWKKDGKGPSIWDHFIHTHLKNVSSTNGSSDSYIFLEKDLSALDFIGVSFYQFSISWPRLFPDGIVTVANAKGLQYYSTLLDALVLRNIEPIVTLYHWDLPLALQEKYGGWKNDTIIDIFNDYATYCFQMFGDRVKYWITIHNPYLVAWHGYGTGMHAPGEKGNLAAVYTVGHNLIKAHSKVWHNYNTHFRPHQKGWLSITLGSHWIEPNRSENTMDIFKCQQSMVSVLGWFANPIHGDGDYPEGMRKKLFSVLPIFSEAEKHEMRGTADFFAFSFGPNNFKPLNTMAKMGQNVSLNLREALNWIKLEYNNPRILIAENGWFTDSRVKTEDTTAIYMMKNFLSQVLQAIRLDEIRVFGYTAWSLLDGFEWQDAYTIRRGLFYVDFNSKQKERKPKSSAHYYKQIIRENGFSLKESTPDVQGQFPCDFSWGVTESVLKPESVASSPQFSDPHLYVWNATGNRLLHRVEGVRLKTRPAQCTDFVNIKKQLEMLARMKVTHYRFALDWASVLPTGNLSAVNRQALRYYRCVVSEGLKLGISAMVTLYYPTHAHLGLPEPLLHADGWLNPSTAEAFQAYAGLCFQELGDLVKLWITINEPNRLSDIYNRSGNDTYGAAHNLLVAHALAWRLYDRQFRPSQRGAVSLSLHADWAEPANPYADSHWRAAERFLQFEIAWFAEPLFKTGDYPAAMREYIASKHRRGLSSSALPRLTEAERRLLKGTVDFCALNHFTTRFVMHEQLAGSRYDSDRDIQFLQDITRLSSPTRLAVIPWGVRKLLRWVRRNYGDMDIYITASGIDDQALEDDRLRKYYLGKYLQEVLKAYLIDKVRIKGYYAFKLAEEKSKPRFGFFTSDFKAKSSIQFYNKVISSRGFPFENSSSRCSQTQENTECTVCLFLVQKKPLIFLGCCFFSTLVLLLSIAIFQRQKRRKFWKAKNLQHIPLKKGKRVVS

Another test addresses mouse Klotho β (mouse) (UniProt Q99N32).
Test [2] deals with T1, human Klotho β. The source holds these as a separate data set.

Sequence of mouse Klotho β (mouse) (Q99N32 whole entry): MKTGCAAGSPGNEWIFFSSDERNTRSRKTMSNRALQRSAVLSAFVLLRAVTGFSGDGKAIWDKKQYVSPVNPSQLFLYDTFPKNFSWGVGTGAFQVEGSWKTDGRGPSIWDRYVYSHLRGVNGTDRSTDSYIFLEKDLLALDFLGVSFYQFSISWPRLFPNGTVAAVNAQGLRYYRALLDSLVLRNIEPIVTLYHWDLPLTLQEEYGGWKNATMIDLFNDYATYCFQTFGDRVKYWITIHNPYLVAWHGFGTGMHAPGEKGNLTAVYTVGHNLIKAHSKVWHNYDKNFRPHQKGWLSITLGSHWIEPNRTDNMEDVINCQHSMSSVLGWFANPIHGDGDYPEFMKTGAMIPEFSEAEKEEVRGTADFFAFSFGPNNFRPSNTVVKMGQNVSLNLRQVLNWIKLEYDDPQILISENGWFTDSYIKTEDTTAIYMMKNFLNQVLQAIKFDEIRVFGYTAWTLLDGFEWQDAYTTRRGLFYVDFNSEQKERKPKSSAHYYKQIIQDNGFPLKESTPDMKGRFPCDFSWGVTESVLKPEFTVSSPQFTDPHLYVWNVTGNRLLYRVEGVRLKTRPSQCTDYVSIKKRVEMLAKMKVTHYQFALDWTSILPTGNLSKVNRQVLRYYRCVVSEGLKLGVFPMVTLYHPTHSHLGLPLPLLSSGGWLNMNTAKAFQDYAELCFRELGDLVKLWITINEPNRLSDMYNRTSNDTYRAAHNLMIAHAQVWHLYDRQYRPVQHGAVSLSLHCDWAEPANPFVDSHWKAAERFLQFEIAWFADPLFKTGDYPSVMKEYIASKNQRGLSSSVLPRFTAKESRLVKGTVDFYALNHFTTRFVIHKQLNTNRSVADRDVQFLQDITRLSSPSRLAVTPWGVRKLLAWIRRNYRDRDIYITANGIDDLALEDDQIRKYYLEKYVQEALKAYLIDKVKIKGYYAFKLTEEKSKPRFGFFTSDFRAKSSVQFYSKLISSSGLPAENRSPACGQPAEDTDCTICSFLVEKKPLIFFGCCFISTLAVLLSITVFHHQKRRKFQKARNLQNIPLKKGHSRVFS

With “FGF19 (from UniProt O95750 25-216) (ligand)”, in the test with human Klotho β [1], the % maximal activity, Erk1/2 phosphorylation in 293T HEK hKLB cells (FIG. 9B) is 27%; the EC-50 of Erk1/2 phosphorylation in 293T HEK hKLB cells (FIG. 9B) was found to be 148 nM; the potency (agonism) in cells that overexpressed human KLB (FIG. 11A) was found to be 65.8. The molecule further came in with a potency (agonism) in cells that overexpressed mouse KLB (FIG. 11B) with mouse Klotho β (mouse) of 25.7.

B1: FGF21 P171A (ligand)
chain: HPIPDSSPLLQFGGQVRQRYLYTDDAQQTEAHLEIREDGTVGGAADQSPESLLQLKALKPGVIQILGVKTSRFLCQRPDGALYGSLHFDPEACSFRELLLEDGYNVYQSEAHGLPLHLPGNKSPHRDPAPRGPARFLPLPGLPPALPEPPGILAPQPPDVGSSDPLSMVGASQGRSPSYAS
With B1, the “% maximal activity, Erk1/2 phosphorylation in 293T HEK hKLB cells (FIG. 9A)” value with human Klotho β [2] came out at 100%.

B2: FGF21-19 K194A (ligand)
chain: HPIPDSSPLLQFGGQVRQRYLYTDDAQQTEAHLEIREDGTVGGAADQSPESLLQLKALKPGVIQILGVKTSRFLCQRPDGALYGSLHFDPEACSFRELLLEDGYNVYQSEAHGLPLHLPGNKSPHRDPAPRGPARFLPLPGLPPALPEPPGILAPQPLETDSMDPFGLVTGLEAVRSPSFEA
Consider B2, for which the “potency as agonist relative to native FGF21” value with human Klotho β [2] is about 5 fold.

The values above are taken from patent US20190142963A1 (INDIANA UNIVERSITY RESEARCH AND TECHNOLOGY, published 2019).
